From IntAct's records for PubMed 37595036

B1: CDK5 regulatory subunit-associated protein 3 (Homo sapiens), Q96JB5 (parent)
chain: MEDHQHVPIDIQTSKLLDWLVDRRHCSLKWQSLVLTIREKINAAIQDMPESEEIAQLLSGSYIHYFHCLRILDLLKGTEASTKNIFGRYSSQRMKDWQEIIALYEKDNTYLVELSSLLVRNVNYEIPSLKKQIAKCQQLQQEYSRKEEECQAGAAEMREQFYHSCKQYGITGENVRGELLALVKDLPSQLAEIGAAAQQSLGEAIDVYQASVGFVCESPTEQVLPMLRFVQKRGNSTVYEWRTGTEPSVVERPHLEELPEQVAEDAIDWGDFGVEAVSEGTDSGISAEAAGIDWGIFPESDSKDPGGDGIDWGDDAVALQITVLEAGTQAPEGVARGPDALTLLEYTETRNQFLDELMELEIFLAQRAVELSEEADVLSVSQFQLAPAILQGQTKEKMVTMVSVLEDLIGKLTSLQLQHLFMILASPRYVDRVTEFLQQKLKQSQLLALKKELMVQKQQEALEEQAALEPKLDLLLEKTKELQKLIEADISKRYSGRPVNLMGTSL

Variants of: B1
Conditions: with ufc1_human UFC1, Q9Y3C8
Sequence of ufc1_human UFC1, Q9Y3C8 (Q9Y3C8 whole entry): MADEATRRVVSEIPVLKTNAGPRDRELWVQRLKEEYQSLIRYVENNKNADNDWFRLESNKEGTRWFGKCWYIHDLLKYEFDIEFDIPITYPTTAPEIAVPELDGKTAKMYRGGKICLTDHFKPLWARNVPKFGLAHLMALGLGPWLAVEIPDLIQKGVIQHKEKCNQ

effect of a mutation on the interaction | Variant
decreasing interaction strength | I267A;W269A
